{"source": "paper PMC7693302", "target": "S2 domain of SARS-CoV-2 S protein (from S protein with FLAG at both N- and C-termini) (SARS-CoV-2)", "assay": "co-sedimentation", "data": [{"substance": "S1 domain of S^G614 (from S protein with FLAG at both N- and C-termini) (domain or fragment)", "values": [{"measurement": "fold S1:S2 ratio against PV^D614", "value": 3.5, "unit": "fold"}]}]}
